# Laboratory results: paper PMC12373785, “Biochemical characterisation supports a central role for Oep80 from Arabidopsis thaliana in chloroplastic β-barrel protein assembly” (Communications Biology, 2025)
# Positions count from the first letter of the chain named. Names may count otherwise.
# B1: Oep80^β-6×His (β-barrel domain of Arabidopsis thaliana Oep80, C-terminal 6×His) (domain or fragment, A. thaliana, UniProt Q9C5J8 398-732, looked up)
# chain: SGGFSAGGGISSGITSGPLSGLIGSFAYSHRNLFGRNQKLNVSLERGQIDSIFRINYTDPWIEGDDKRTSRSIMVQNSRTPGNLVHGNQPDNSSLTIGRVTAGVEYSRPFRPKWNGTAGLIFQHAGARDEQGNPIIKDFYSSPLTASGKPHDETMLAKLESIYTGSGDQGSTMFAFNMEQGLPVLPEWLCFNRVTGRARKGIHIGPARFLFSLSGGHVVGKFSPHEAFVIGGTNSVRGYEEGAVGSGRSYVVGSGELSFPVRGPVEGVIFTDYGTDMGSGSTVPGDPAGARLKPGSGYGYGLGVRVDSPLGPLRLEYAFNDQHAGRFHFGVGLRN
# notes: AtOep80 (also known as Toc75-V), A. thaliana, β barrel domain, residues 398-732; Mostly dimeric in solution by native MS; Cloned in modified Pet15b for the C-terminal 6×His; also called AtOep80 β barrel domain; Toc75-V β-barrel domain; not shown: His6, C-terminal, kept
# B2: Oep80^β C587S/S408C/G727C (domain or fragment, A. thaliana, UniProt Q9C5J8 398-732, looked up)
# chain: B1 chain with S11C, C190S, G330C
# modifications: intramolecular disulfide between the introduced cysteines 408 and 727 (after Cu2+ incubation)
# notes: AtOep80, A. thaliana, β barrel domain, residues 398-732, with native cysteine C587 removed and cysteines introduced in the β1 and β-1 strands
# B3: untagged Oep80^β (6×His-Oep80^β after thrombin cleavage) (domain or fragment, A. thaliana, UniProt Q9C5J8 398-732, looked up)
# chain: B1 chain
# notes: AtOep80 (Toc75-V), A. thaliana, β barrel domain, residues 398-732; also called tag-free Oep80^β; not shown: His6, N-terminal, cleaved
# B4: 6×His-Oep80^β (N-terminally tagged β-barrel domain of A. thaliana Oep80) (domain or fragment, UniProt Q9C5J8 398-732, looked up)
# chain: B1 chain
# notes: AtOep80 (Toc75-V), A. thaliana, β barrel domain, residues 398-732; Cloned in Pet28a (N-terminal 6×His, removable by thrombin); also called tagged Oep80^β; 6×His-tagged version; not shown: His6, N-terminal, kept
# B5: Oep21a β-1 wild-type peptide (peptide)
# peptide: GKWNVRYDL
# notes: also called Oep21a β-signal peptide; Oep21a β-1 w.t; source: synthetic peptide, bought: Proteogenix (99% purity)
# B6: Oep21a β-1 D-to-E peptide (peptide)
# peptide: GKWNVRYEL
# notes: A. thaliana Oep21a β-1, residues 159-167, penultimate residue D changed to E; also called D-to-E mutation; source: synthetic peptide, bought: Proteogenix (99% purity)
# B7: Oep21a β-1 D-to-A peptide (peptide)
# peptide: GKWNVRYAL
# notes: A. thaliana Oep21a β-1, residues 159-167, penultimate residue D changed to A; also called D-to-A mutant; source: synthetic peptide, bought: Proteogenix (99% purity)
# Tests used:
# [1] = target: Oep80^β mutant with the Oep21a β-1 peptide sequence covalently attached via a flexible GS linker (A. thaliana) (UniProt Q9C5J8); assay: native MS; protein alone, buffer-exchanged into 200 mM ammonium acetate pH 8.0, 0.5% C8E4; for the oxidised C587S/S408C/G727C mutant 0.1 mM CuSO4 pre-incubated 4 h before buffer exchange; monomer and dimer charge state series
# [2] = target: the molecule itself; assay: as above
# [3] = target: B1; assay: native MS; 100 µM peptide with 7 µM Oep80^β-6×His in 200 mM ammonium acetate pH 8.0, 0.5% C8E4; peptide-bound relative to unbound species, n = 4; details: both partners purified
binding result [3],Molecule,stoichiometry N [2],further results
–,Oep80^β mutant with the Oep21a β-1 peptide sequence covalently attached via a flexible GS linker (from UniProt Q9C5J8 398-732),–,stoichiometry N [1]: 2
–,B1,2,–
–,B2,2,–
–,B3,2,–
–,B4,2,–
binds,B5,–,–
binds,B6,–,–
binds,B7,–,–
